# Assay: soluble on expression in E. coli; label from the status in PepcDB or PDB records
row,Sequence,soluble on expression in E. coli
1,MVHVKDVLADQLLANANDPSWYMPFSDAVKDLSEREAFWKPNEECNSIAEIVQHLLYWNSTWQTRYKESHVNAVPAIGDNNKSFMLSDNQTFDELREKLLEKLLQWQTLINEEKVESDVVGFPVSAKWWEVLANVTTHNAYHIGQIIYIRKLQQSFDNK,not soluble
2,MAHHHHHHMSSRIGHAGTGMPTRGIASFPNSPPAVRNSCSTADTEGFGVSMESTIFTGTFSTAACAHAPTRRTVEAREQTSTVLDHLVTHIVDVPFFLARNAEERAHGCSLSLATAACPGTKLVMRNPRRRLISHSSQTHGAPASSHWPKVLFVPDSSSQRLAAPP,not soluble
3,EPEQVIRKYTEELKVAPEEDCIICMEKLAVASGYSDMTDSKALGPMVVGRLTKCSHAFHLLCLLAMYCNGNKDGSLQCPSCKTIYGEKTGTQPWGKMEVFR,soluble
4,MTKNTRFSPEVRQRAVRMVLESQGEYDSQWATICSIAPKIGCTPETLRVWGLRQHERDTGGGDGGLTTAERQRLKEPERENRELRRSNDILRQASAYFAKAEFDRLWKKLEHHHHHH,not soluble
5,MSDEEIDISTALNNKTTPKKKSLKRNSNSQEGYESPEEREIVYPSVFGAIGTPMAKSDNAKEWDEWKEKERKKDKAEWKRYLRSKWDMTQGHLPLVSDSEFLKGRKEHKEYNSKARMDILDGLDEVNEGFFNCGKGAAMNIRYNDKNVSKKGAKKFVATVETAMKKAGNPTMEQMMTDDLDEDEARAEAEWERQREQRKLASRAYDAAMDEREDDAKYVPWDEYCQEMEELGKELKIGEKHYKKWLEKKMDENKVTHKFNAYQLDLKCLDEDAFSNKKSLKSVVRNVQKFYRKMREPKK,not soluble
6,MAHHHHHHMRGWTAIRSPQLPTLHHRTVVEHTRPQKKKAKKKHGGRVRLCVWRCRCLPALAAKKTKQEGKKCVLRPTSPRRTPTRHGSLSAPFVAAPPHACSRRGAQGRRHERVGGCASGAVGRETHGTPHRKSAEETIKRGKSRKKKKTSIVIAPKSKKEGMWGVRELKRTN,soluble
7,MGGCCSQEGCNTRPRYLPLKCYPGLPMRATRRLDLSAVERALREVQGRFAELSQHFTEPRDPFTDEVLLNVVEGYALIDDYVARGIDLFDLQQLNLMLEINATVLCGSDPARRLEFAPHLAATEAHFFNNVEGGIKDLYNWYCAYRSDSIWKRAAGVYVRILSKPQLFIEGNNRTGSLIVSYLLMRAGLPPFVLSLDNAEGYFNPSSVIRNSAKHGVKALYELPKIKKKYAAFLEAKAPEPGKFFLNGTPVPACEGSRLEHHHHHH,soluble
8,EHAKQASSYIPLDRLSISYCRSSGPGGQNVNKVNSKAEVRFHLASADWIEEPVRQKIALTHKNKINKAGELVLTSESSRYQFRNLAECLQKIRDMIAEA,soluble
9,MGSDKIHHHHHHNRRELTYSPEATITISADWSQSGLNEKEQDYGATAIFYPTDGSTPFVALMGDRTYKTLCLKEGCYNVVLFNRSFDDFGNLCFRGEENYQTLEAYVKKMEIRNESSSERIIMESPDELAADYIEGFEVTSDMPENYSSAITQQSNRNSTRNENSCHLRFTPKKLTQKITVKIRIKGMNNIRKATCTLDGIAESIFLVSKQNSEKTVTQVLRLSNPIYDSGSVTEGTLSTTISVFGFDVEIPHNLHLKAKLVDGKTIFEESFNDLAIRRLDEEDGTMSVFIDMACEKTVPNVKTEGSSGFDADVDKWNDEVNSDIDI,not soluble
10,MGSDKIHHHHHHMSQSMVGKHAMWPKENDVIFSISGRAQAAEKAFGMDNVINATIGALMDDSGKLITMKTVYEEYKALDNCEIGAYAALEGQPDYLEAVKKVFFRDYLPEGHIRVLASPGGSGAIKLAVWNYTNEGDEVLTSDWFWSPYVSIAEEANRKVVNYQLFDENRRFNFESFKEKFVNIAEKQGRVFTIINTPAHNPTGYSVADDEWDKILDLSKEVAKDKDKKIIFFVDSAYIDFAGDDDVCRKFFKKFSNLPENVLVLVGFSMSKGFTAYGMRMGAIICISSSEDVAEEFHYSCVHSCRANWSNCNRSAMAVLSNIVNDPKKFKEYEDEKEIYKNMLTRRADVFVKEAERVGLEILPYIAGFFVSIPCDNPKEVCEELTKHNLFAVPLKMGLRFAVCAVSEDKCKKAPSIIKEALESLEVKINN,not soluble
11,MGSDKIHHHHHHVARRKEHTHEQIRHMAISAVVEHLQCHGVDNLSLRKVATTIGYVPSTLINIFGSYQYLLLAVSEQTLLQLAAQLQLIKPTTPTKTIEQMAIVYSQFALANRRCFRLVFELTMTDDQPLPAAHLGLIKSLFSDVEFQLSQYFPSACEQEVEMMSRVLWGGIHGLTCLSLDGKLFETQSCLQDMLTSHVSSYIDGMSIKRNSNAAN,not soluble
12,MGSDKIHHHHHHMSLRKNLALGSSTVLLTAVLSGCVSLDERSTDTSTENVTTVTATLTSTAAAEPTTRTTVQSATEASTTAPVQCNLDPRTSDFGPYLAQSRTPVGELAGSADSVVQVPDWFYHFQMGDNGYDSCSKLSYVVLNGSNGDAERSTGTGAAIADVVVLFIDGHMVARPAPFEMKTVESVTRVSDSEIQVVYGHAGRSTAEGVTDYFTFNFFVDNGVLSGRGDLPEHIDTHMRLYLL,not soluble
13,MKELKQAEQIRTWVQSILTDESSGHDWHHVSRVADLAAYIGEKEKADLFIVETAALVHDLIDVKLPDTVRLSVSEVYDQLVFFGVGKENADRVIHIITRMSFRDRGKLAKEPLSIEGKAVQDADRLDAIGAVGIARAFMFAGAKGHGLYGDEQSAYAHFFHKLLRLKDMMNTDTARELAEERHNFMLQFVRQLEKDIPGIDAETS,not soluble
14,MKKIILVAALLSAAVCLPAQNKGGNKSGGINLSLWKKACTQPLDSTQTTYVNLGLFSAMHKLHGVGFNAFGSMVQNNMNGVQISGLANLAGGSMHGVQIGGISNVNGNNLAGLSVSGLVNITGNKAKGVLITGLSNIAGDNMRGLMMSGIMNITGDKAAGVQLAGLANVTGEEYDGLMMSGLLNVVGEEMNGLQLSGLANVTGGQMNGVQLGLFNFASKAKGLQIGLFNYHKEDMKGLQLGLVNANPQTKVQLMVFGGNSTKINVGARFKNKLFYTILGGGTHYLDFDDKFSAALFYRAGLELPLYRNLFVSGDLGYQHIETFRNKKVEGIPARLYALQARLNLEYRFTDKFGLFVTGGYGGSRYYNKARTYDKGVIAEAGVVLFMAGDPLEHHHHHH,not soluble
15,GPGSMRLSLLRRFCEYVPKGAPTQVSLSVETPYGVTRAFRMTEMAAAAADAERDAKGFFYLPRMDYDVGQGVAPLMSRKQFDVQYNVFHKAAVDRLNAHTLGSELEGHNLNVVIRNSSFDASHAVIHAAASEHFNYCFWYRSLRPWGTAVPARLKEELQLQYSQNGTLDAVKEVQRLFTVAALSQQSAGGWVYLVWTGKAFDVIPFDHGTCPIGSDLIPLLALNTHESARCYDYPLAAEDEEGDEVERFVRNFFKTCNWRLVEHYFLQCGRA,not soluble
16,MGSDKIHHHHHHAEDDRMTPLSADSGDTADELIPIHISLTGDNDYHSSSFNDASTRSHSPLIAEWVGVKAFSPTRTGEQPDYEGPRIASMELTEDTLPRVSTRATVPAGVYFRLIVFRKSGNNYVFQSVADYASNGTGTPVLERGKLLTRSGTIRVVGYSFNTTADLGDMPSTYAYNSSTVSIPDMSKDFMTFDSGDITNVNSLSHNLPVSFSQKLCKLTITISPTGFPSNTITNCTGVYVKQGGNSTSWKIGPSTNVVAANTNNTAAFSPNTTLNTTIRMVPFAGARTITVHFNTLTVGGRTVNNNTEITSTQSVQLKEGKSYTLKIQFKKGPGINVPASNINLTQNGCTENDKTILSKLRWAEGNLNSQSNYNLTWASSTTDYGYYYIWKNVYVSSGYTGYGAVDPCTRLDESIYGSGWRTPTRSEFISLSRCSNKQLVKYNGIQGMWFMNSSTGLFLPAAGYRDGDKGSGTTATAYTNGTGSYYWSSDLNGNSAYGLYILKNDVFVDANGNRKSGVSVRCVHNL,not soluble
17,MKTMSEEDSRTASRYAMIREVLRNAIVSGAAAKGLVLLEAPLGELFGTSRVPVRKALNLLHEEGLISRFDGRGYLVNPERQHVEPLRLSLSHKQFGLDSNEELVDTRPLGERIHDEIGAALSACIAFGHYRLDEQSAAQHYGVSRSVVREALMRLRDRGLVEKEPYSQWLAGPLTAREITEDYELRACLEPEALRLTAPQLSRETLEAMLTRVVEAQNAEQCSLEDIERLEEDLHQQCLAGLQNRKIATLISQAQSPMIINRIFYRLLDIGADEAMLAEHRLIIELLLHGAFDAAALNLKEHLQRARQRMLQRLKVLSVLPEQEVPGYLTRLS,not soluble
18,MLTRTDGKGSKVLLIAAMDTKGTEARYIESWLAKAGFTTLIMDMGIRGKRPGPVAVTRDEVLRAAGKTWDDIQNVTSEGDAVDIMISGGVKCALALYKADLIQGVISLGGTMGTTLGTGVMRAFPIGFPKVMISTIAAKDTEAFIGNMDIFMLNSVSDLAGLNRITRKVLRNGALAIAGLVREREFHDEFSRPLAVLTTLGTTEATAARMRIHFEAWGYESVTFHTTGTGGQAMERMVNFEPVSAVVDLSLHELIDHHFGGAFDPGPERGRAALQKGIPTVIVPGNIDFLVTGPMAQAQIYFPGRRGHKHNANITCVRTSLEEIQRIAEIMAGYCNESTGPVAVLVPMKGFSCLDHEDGPQPDPEGPRVFAETFARALTRTIHFETVPLHINDEAFSEVIVGALQKIGGLRKIEADRLPSRQPATWSPYSSVHTLDRFSGNQHTTTETTGDALAALEHHHHHH,not soluble
19,VTLLEQNPRWRLVPRGQAVNLRCILKNSQYPWMSWYQQDLQKQLQWLFTLRSPGDKEVKSLPGADYLATRVTDTELRLQVANMSQGRTLYCTCSAAPDWGASAETLYFGSGTRLTVL,soluble
20,MGSDKIHHHHHHMSIKLDHRLLYLRVIEKIKSDIDDGVYKEGEKLPSEFELSKQLGVSRATLREALRILEDENIVIRKHGVGTFINARPPFTSGIEELYSVTEMIARAGMIPTSEVLSSEMVQPTERDRERFQLGPDELVYRIERIRLAGDVPVVYCVDKIPSHYIKNEEQFTSSTSLFDALEKELGRRVTHAVTHIEPRIDPKIAEQLHTDQPLLVLRQTHYDELDRSVLYSANYFRADKFDFHVIRKRV,not soluble
21,MSTTPGTPHGVTHSLMEQGWYWADADRSAVSKALSDQPDGSFIVRNASTPGDYTLSVKFAAQVKLLRIVVKDGKCGFNTDSLTHDSVVRLIEFHRNISLNIFNDALDVRLLYPVSVRRNSQNGKPFFKKGQLQQRMILSAKNDHDWRERLEMENLRAVHLAFERGAKLYDSAHQEMERAESLYHALNQSVRDNEIKLGKLNNLLEAETDVVTQIQGSQTTSEMLKGAFANNKTFVEESIRRINTELTSSKDKKKTLSGILDEIAMKRSNSKTRLCKLMELRSAVYDKMEPALCSRMAAMLDAGAEMINSEPTKVTQLLVDMELKWTPAQYLMCGTSKENAANALIHARYRIAQLDKAVGLKREPQDGIFLIRGSSSHGDKLVLSVLHGERVSHCLIEQNEEGWGFEHSNVYLTTISDFVRYYSHFSLETHADAIKTPLRTPAFDAVTSDTSKPLRNGPGQVFTALPISRKYMEKALLTDDPTKPPESPEPRPDSWDSPSPDTPSSSDSRLVHPTTLPKSIPE,not soluble
22,GSHMTREMRILILGLDGAGKTTILYRLQVGEVVTTIPTIGFNVETVTYKNLKFQVWDLGGLTSIRPYWRCYYSNTDAVIYVVDSCDRDRIGISKSELVAMLEEEELRKAILVVFANKQDMEQAMTSSEMANSLGLPALKDRKWQIFKTSATKGTGLDEAMEWLVETLKSRQ,soluble
23,LYLKRATHRIADGIGVVKASKLMGGSIRERVTGIDVMDNFLEYANQHKERIFLYGAKQEVVEAAAKNIQRQYPGIVISGILHGYTKKKQQEIVEQINKAEPRFVFVALGSPKQEIFLEQTIDHLTANVFLDVGGTFDVLAGSVKRAPEFYINHNLEWLYRCLTMKRYDRLMQIPKYIYLTIKYRNNKSRGQ,not soluble

# Source: the DeepSol protein solubility set
